Target: maize VIVIPAROUS-1 (VP1) B3-domain transcription factor (maize) (UniProt P26307)
Test: cell-based or functional assay

Sequence of UniProt P26307 (P26307 whole entry): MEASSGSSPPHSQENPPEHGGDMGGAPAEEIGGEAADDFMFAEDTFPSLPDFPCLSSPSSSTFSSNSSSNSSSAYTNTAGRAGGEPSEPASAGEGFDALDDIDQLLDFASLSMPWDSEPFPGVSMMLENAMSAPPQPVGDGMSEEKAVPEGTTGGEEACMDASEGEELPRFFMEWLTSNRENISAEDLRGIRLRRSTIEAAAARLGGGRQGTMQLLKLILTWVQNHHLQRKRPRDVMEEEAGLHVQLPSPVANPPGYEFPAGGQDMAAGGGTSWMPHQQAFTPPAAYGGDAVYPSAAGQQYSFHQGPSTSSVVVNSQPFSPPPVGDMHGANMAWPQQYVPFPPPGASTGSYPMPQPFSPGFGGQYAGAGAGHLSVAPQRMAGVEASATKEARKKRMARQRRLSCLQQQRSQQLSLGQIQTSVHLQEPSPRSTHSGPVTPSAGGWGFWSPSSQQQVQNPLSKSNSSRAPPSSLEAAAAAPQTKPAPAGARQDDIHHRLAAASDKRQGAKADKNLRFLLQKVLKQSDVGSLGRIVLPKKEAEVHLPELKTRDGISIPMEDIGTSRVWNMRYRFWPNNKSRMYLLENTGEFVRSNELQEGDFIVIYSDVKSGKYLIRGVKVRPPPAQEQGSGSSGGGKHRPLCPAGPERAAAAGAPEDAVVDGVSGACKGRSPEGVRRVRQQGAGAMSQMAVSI

Substance: ABF3 (ABA-Response Element-Binding Factor 3) (from UniProt Q9M7Q3 1-454)
- ABA-inducible Em-GUS reporter gene expression, transiently co-transformed rice protoplasts; synergy relative to that of ABI5 with VP1: 2 fold

Reference: patent publication US20050193443A1
